# What was measured:
# Assay in all cases: cell-based or functional assay
# [1] = biological target: HIV-1 Env of isolate MGRM-F1-008 (subtype F), on pseudovirus (HIV-1)
# [2] = biological target: HIV-1 Env of isolate MGRM-AG-005 (CRF_AG), on pseudovirus (HIV-1)
# [3] = biological target: HIV-1 JR-CSF Env E466A (HIV-1 (isolate JR-CSF)) (UniProt P20871)
# [4] = biological target: HIV-1 Env of isolate MGRM-C-020 (HIV-1)
# [5] = biological target: HIV-1 Env of isolate MGRM-C-014 (HIV-1)
# [6] = biological target: HIV-1 Env of isolate 92UG037 (HIV-1)
# [7] = biological target: HIV-1 Env of isolate 94UG103 (HIV-1)
# [8] = biological target: HIV-1 Env of isolate 92UG046 (HIV-1)
# [9] = biological target: HIV-1 Env of isolate MGRM-D-026 (subtype D), on pseudovirus (HIV-1)
# [10] = biological target: HIV-1 JR-CSF Env D477A (HIV-1 (isolate JR-CSF)) (UniProt P20871)
# [11] = biological target: HIV-1 Env of isolate 93IN905 (HIV-1)
# [12] = biological target: HIV-1 Env of isolate MGRM-G-028 (HIV-1)
# [13] = biological target: HIV-1 Env of isolate MGRM-AE-002 (CRF01_AE), on pseudovirus (HIV-1)
# [14] = biological target: HIV-1 JR-CSF Env D167A (HIV-1 (isolate JR-CSF)) (UniProt P20871)
# [15] = biological target: HIV-1 Env of isolate MGRM-AE-004 (CRF01_AE), on pseudovirus (HIV-1)
# [16] = biological target: HIV-1 Env of isolate MGRM-D-014 (HIV-1)
# [17] = biological target: HIV-1 Env of isolate MGRM-Chronic-B-004 (HIV-1)
# [18] = biological target: HIV-1 Env of isolate 92UG024 (clade D) (HIV-1)
# [19] = biological target: HIV-1 JRCSF envelope glycoprotein (Env) on pseudovirus (HIV-1) (UniProt P20871)
# [20] = biological target: aMLV envelope on pseudovirus (negative control virus)
# [21] = biological target: HIV-1 94UG103 envelope glycoprotein (Env) on pseudovirus (HIV-1)
# Chain of 5329_C19 (PGT-136) (antibody) (VH): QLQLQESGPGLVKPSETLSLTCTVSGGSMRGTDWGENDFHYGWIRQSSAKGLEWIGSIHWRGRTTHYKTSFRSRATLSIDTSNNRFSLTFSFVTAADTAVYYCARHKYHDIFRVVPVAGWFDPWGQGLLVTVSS
# Chain of 5329_C19 (PGT-136) (antibody) (VL): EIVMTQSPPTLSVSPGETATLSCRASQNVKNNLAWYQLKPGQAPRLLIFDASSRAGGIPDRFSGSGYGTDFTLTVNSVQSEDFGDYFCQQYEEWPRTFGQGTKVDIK
Substance,"IC50, pseudovirus neutralization [1]","IC50, single-round pseudovirus neutralization [2]",Fold IC50 increase relative to wild-type [3],IC50 [4],IC50 [5],neutralization IC50 [6],neutralization IC50 [7],IC50 [8],"IC50, pseudovirus neutralization [9]",Fold IC50 increase relative to wild-type [10],IC50 [11],"IC50, pseudovirus neutralization [12]","IC50, single-round pseudovirus neutralization [13]",Fold IC50 increase relative to wild-type [14],"IC50, single-round pseudovirus neutralization [15]",IC50 [16],IC50 [17],further results
5136_H01 (PGT-131) (antibody),2.74 µg/mL,1.04 µg/mL,1.7 fold,> 50 µg/mL,> 50 µg/mL,0.048 µg/mL,1.1 µg/mL,> 50 µg/mL,> 50 µg/mL,1 fold,0.177 µg/mL,0.466 µg/mL,> 50 µg/mL,1.2 fold,> 50 µg/mL,0.516 µg/mL,0.04 µg/mL,
5329_C19 (PGT-136) (antibody),> 50 µg/mL,> 50 µg/mL,,> 50 µg/mL,> 50 µg/mL,> 50 µg/mL,> 50 µg/mL,> 50 µg/mL,> 50 µg/mL,,0.011 µg/mL,> 50 µg/mL,> 50 µg/mL,,> 50 µg/mL,> 50 µg/mL,> 50 µg/mL,
5147_N06 (PGT-130) (antibody),0.065 µg/mL,0.54 µg/mL,1.7 fold,> 50 µg/mL,> 50 µg/mL,0.061 µg/mL,1.4 µg/mL,> 50 µg/mL,> 50 µg/mL,1.1 fold,0.02 µg/mL,0.074 µg/mL,1.53 µg/mL,1.2 fold,2.43 µg/mL,0.061 µg/mL,0.01 µg/mL,"neutralization IC50 [18]: > 10 µg/mL; neutralization IC80 [18]: > 10 µg/mL; neutralization IC90 [18]: > 10 µg/mL; neutralization IC95 [18]: > 10 µg/mL; IC50 (ug/ml), neutralizing activity [19]: 0.0089 µg/mL; IC50 (ug/ml), neutralizing activity [20]: > 10 µg/mL; IC50 (ug/ml), neutralizing activity [21]: 0.635 µg/mL"
5343_B08 (PGT-135) (antibody),> 50 µg/mL,> 50 µg/mL,0.5 fold,> 50 µg/mL,> 50 µg/mL,3.67 µg/mL,> 50 µg/mL,> 50 µg/mL,> 50 µg/mL,1.5 fold,0.011 µg/mL,> 50 µg/mL,> 50 µg/mL,0.7 fold,> 50 µg/mL,2.21 µg/mL,> 50 µg/mL,
